According to patent US20120028901A1:
Like-named read-outs stand apart in the source and are kept apart here.

Columns and labels:
Conditions in all cases: modification not given
[1] = biological target: T1, TFPI (human TFPI-1α) as coated or added in the ELISA, microarray and enzymatic assays (human), P10646
[2] = biological target: T1, TFPI (human TFPI-1α) as coated or added …; test: competition
[3] = biological target: T1, TFPI (human TFPI-1α) as coated or added …; remark: listed apart in the source
[4] = biological target: T1, TFPI (human TFPI-1α) as coated or added …; remark: listed apart in the source

Binder | IC50 [2] [µM] | also measured
FQSKGNVFVTGYFARLRAKL [JBT0720] |  | EC50 [1]: 0.22 µM
FDSKKNVFVFGYFERLRAKL [JBT0586] | > 1.67 | 
FQSKKNVFVFGYFERLRAFL [JBT0583] | > 5 | 
FQSKKNVFVFGFFERLRAKL [JBT0577] | > 5 | 
FQSKGNVFVAGYFARLRAKL [JBT0806] |  | EC50 [3]: 2.42 µM; EC50 [4]: 0.13 µM
FQSKNNVFVHGYFERLRAKL [JBT0487] | 0.04 | 
AQSKGNVFVFGYFERLRAKL [JBT0497] | 0.1 | 
FQSKKNVDVFGYFERLRAKL [JBT0591] | > 5 | 
FQSKKNVFDFGYFERLRAKL [JBT0592] | > 5 | 
FQSKKNVFVFGYFEFLRAKL [JBT0579] | > 5 | 
FQSFKNVFVFGYFERLRAKL [JBT0572] | > 5 | 
FQSKFNVFVFGYFERLRAKL [JBT0573] | 1.37 | 
FQSKKNVFVFGYFERFRAKL [JBT0580] | > 5 | 
FQSKKNVFVFGDFERLRAKL [JBT0594] | > 5 | 
FQSDKNVFVFGYFERLRAKL [JBT0588] | > 5 | 
FESKGNVFVFGYFERLRAKL [JBT0516] | 1.19 | 
FQSKKFVFVFGYFERLRAKL [JBT0574] | > 5 | 
FQSKKNVFVFGYFERLFAKL [JBT0581] | > 5 | 
FQSKKNVFVFFYFERLRAKL [JBT0576] | > 1.67 | 
FFSKKNVFVFGYFERLRAKL [JBT0570] | > 5 | 
FQSKKNDFVFGYFERLRAKL [JBT0590] | > 5 | 
FQFKKNVFVFGYFERLRAKL [JBT0571] | > 5 | 
FQSKKNVFVFGYFERLRFKL [JBT0582] | > 5 | 
